Earlier results as cited in PMC3742252.

Target: TSH (Bos taurus) (UniProt P01217)

Substance: thyroid-stimulating hormone receptor (from UniProt Q8SPP9)
- Kd: 1 nM
